These results are taken from IntAct's records for PubMed 22078559.

First the molecules themselves.
B1: Double-strand break repair protein MRE11 (Homo sapiens), P49959 (parent)
chain: MSTADALDDENTFKILVATDIHLGFMEKDAVRGNDTFVTLDEILRLAQENEVDFILLGGDLFHENKPSRKTLHTCLELLRKYCMGDRPVQFEILSDQSVNFGFSKFPWVNYQDGNLNISIPVFSIHGNHDDPTGADALCALDILSCAGFVNHFGRSMSVEKIDISPVLLQKGSTKIALYGLGSIPDERLYRMFVNKKVTMLRPKEDENSWFNLFVIHQNRSKHGSTNFIPEQFLDDFIDLVIWGHEHECKIAPTKNEQQLFYISQPGSSVVTSLSPGEAVKKHVGLLRIKGRKMNMHKIPLHTVRQFFMEDIVLANHPDIFNPDNPKVTQAIQSFCLEKIEEMLENAERERLGNSHQPEKPLVRLRVDYSGGFEPFSVLRFSQKFVDRVANPKDIIHFFRHREQKEKTGEEINFGKLITKPSEGTTLRVEDLVKQYFQTAEKNVQLSLLTERGMGEAVQEFVDKEEKDAIEELVKYQLEKTQRFLKERHIDALEDKIDEEVRRFRETRQKNTNEEDDEVREAMTRARALRSQSEESASAFSADDLMSIDLAEQMANDSDDSISAATNKGRGRGRGRRGGRGQNSASRGGSQRGRADTGLETSTRSRNSKTAVSASRNMSIIDAFKSTRQQPSRNVTTKNYSEVIEVDESDVEEDIFPTTSKTDQRWSSTSSSKIMSQSQVSKGVDFESSEDDDDDPFMNTSSLRRNRR

Variants of B1 are the subject of the assay. The following applies: with nbn_human NBN.
In the case of R202G, the “effect of a mutation on the interaction” value is “disrupting interaction”.
Consider D86L, for which the “effect of a mutation on the interaction” value is recorded as “decreasing interaction”.
Consider R80A, for which the “effect of a mutation on the interaction” value was “disrupting interaction”.
Turning to C146A, the “effect of a mutation on the interaction” value is “decreasing interaction”.
As to N117L, the “effect of a mutation on the interaction” value was “disrupting interaction”.
P121G: the “effect of a mutation on the interaction” value is given as “disrupting interaction”.
S104C: the “effect of a mutation on the interaction” value was “decreasing interaction”.
